In patent publication US20100196953:
Changes are numbered by the printed parent chain.

B1: Ser172Ala porcine trypsin (protein)
chain: IVGGYTCAANSIPYQVSLNSGSHFCGGSLINSQWVVSAAHCYKSRIQVRLGEHNIDVLEGNEQFINAAKIITHPNFNGNTLDNDIMLIKLSSPATLNSRVATVSLPRSCAAAGTECLISGWGNTKSSGSSYPSLLQCLKAPVLSDSSCKSSYPGQITGNMICVGFLEGGKDACQGDSGGPVVCNGQLQGIVSWGYGCAQKNKPGVYTKVCNYVNWIQQTIAAN
B2: native, recombinant porcine trypsin (wildtype porcine pancreatic trypsin isoform I) (protein)
chain: B1 chain with A172S

Tests used:
pre-pro-insulin glargine [1] = system: pre-pro-insulin glargine
pre-pro-insulin glargine [2] = molecular target: pre-pro-insulin glargine; remark: listed apart in the source
[3] = molecular target: pre-pro-insulin (human insulin)
[4] = molecular target: pre-pro-insulin glulisine

Molecule | by-product formation in pre-pro-insulin processing (HPLC) (pre-pro-insulin glargine [1]) | Insulin glargine [area %] (pre-pro-insulin glargine [2]) | Yield (external standard) [%] (pre-pro-insulin glargine [2]) | des-Thr [area %] (pre-pro-insulin glargine [2]) | pre-Insulin glargine [area %] (pre-pro-insulin glargine [2]) | Σ A0 compounds [area %] (pre-pro-insulin glargine [2]) | Yield (external standard) [%] [3] [%] | des-Thr [area %] [3] [area %] | Σ A0 compounds [area %] [3] [area %] | Σ Arg-Ins [area %] [3] [area %] | Σ pre-Arg-Ins [area %] [3] [area %] | A0-Arg-insulin glulisine [area %] [4] [area %] | Arg-insulin-glulisine [area %] [4] [area %] | Yield (external standard) [%] [4] [%]
Serine190Alanine human trypsin variant | High amounts of by-products, mainly B30-des-Thr- and A0-components, are formed during reaction | – | – | – | – | – | – | – | – | – | – | – | – | –
B1 | – | 55.5 | 62.9 | 2.6 | 0.4 | 5.1 | 96.5 | 3.3 | 4.1 | 82.5 | 0.9 | 1.2 | 39.2 | 100
B2 | – | 51.1 | 58.1 | 5.6 | 0.5 | 10.9 | 84.2 | 7.2 | 10.7 | 68.8 | 1.4 | 4.7 | 35.8 | 91.6
